According to PMC6637871, “Structural and functional insights into the modulation of the activity of a flax cytokinin oxidase by flax rust effector AvrL567‐A” (Molecular Plant Pathology, 2018):

Tests used:
[1] = molecular target: LuCKX1.1 protein (residues 44-534), purified (flax (Linum usitatissimum))
purified protein [2] = substrate: CC(C)=CCNc1ncnc2nc[nH]c12; assay: purified protein; type: biochemical, Linum usitatissimum; details: 0.5 mM DCPIP as electron acceptor, 1.6 µM LuCKX1.1, McIlvaine buffer pH 7.5, no AvrL567-A
purified protein [3] = substrate: C/C(=C\CNc1ncnc2[nH]cnc12)CO; assay: purified protein; details: 0.5 mM DCPIP as electron acceptor, 1.6 µM LuCKX1.1, McIlvaine buffer pH 7.5, no AvrL567-A

B1: AvrL567-A protein (residues 24-150), purified (natural protein)
chain: MEHVPAELTRVSEGYTRFYRSPTASVILSGLVKVKWDNEQMTMPLFKWIGGEQAEELHFCVHIAHSSGPKLNRARSLGTVNSNMDQHWAQAQRNSGATRRTIEGFHLFENDIPNFPDYIKIKLVPKT
Question: How did the turnover rate (Kcat) of LuCKX1.1 towards 2iP in the DCPIP kinetic assay, with 1.6 uM AvrL567-A against without it [1] turn out when B1 was run?
Answer: 50%

Question: What about the turnover rate (Kcat) of LuCKX1.1 towards tZ in the DCPIP kinetic assay, with 1.6 uM AvrL567-A against without it [1] of the same binder?
Answer: 130%

B2: LuCKX1.1 (Linum usitatissimum) (protein)
chain: LQGSIDYSTLAADFTGKDFGGVYSSNPLALIRPSGADDVARVLKSACRSSNLTVAARGNGHSINGQAMADGGIVLDMRSTEGNHFKILRINGGDHTAYADVSGGALWEDILMRCVSEYGLAPRSWTDYLRLTVGGTLSNAGVSGQAFRYGPQSSNVTELDVVTGKGDFLTCSPTHNSDLFFGALGGLGQFGVITRARIPLEPAPDMVRWIRMVYAEFEDFSRDAEWLVTQPEKESFDYVEGFAFVNSDSPADGWPSVPLYPNHMMEPTTPIHSGHQLLYCLELALHFNHSNSSSTVDSVVKRLIGGLRYMKGFKYEVDLSYVEFVMRVKRVEEDARAHGMWDAPHPWLNLFVSKADIAEFDRLIFKGLLHDGVGGPMLVYPLLRSKWDSRSSVVLPEGEDEIFYIVALLRSNPPYPKGPSVDKLVSQNDKIIQSCIQHGLGFKLYLPHYQSQHDWRRHFGDQWSKFVQLKLAFDPMAVLAPGQKIFTRTTK
notes: crystal model residues 44-532, two molecules per asymmetric unit; FAD covalently linked to His104
Question: B2 was tested. Which Km (purified protein [2]) did it give?
Answer: 44 µM

Question: And the kcat (purified protein [2])?
Answer: 5.4 s⁻¹

Question: What about the Km (purified protein [3]) of the same binder?
Answer: 64 µM

Question: What about the kcat (purified protein [3]) of the same binder?
Answer: 0.69 s⁻¹
